The experiment has as its target GST-Rab6A Q72L (UniProt P20340 1-208, Q72L). In words: GTPγS-loaded Rab6A.

Chain of GST-Rab6A Q72L (P20340 whole entry Q72L): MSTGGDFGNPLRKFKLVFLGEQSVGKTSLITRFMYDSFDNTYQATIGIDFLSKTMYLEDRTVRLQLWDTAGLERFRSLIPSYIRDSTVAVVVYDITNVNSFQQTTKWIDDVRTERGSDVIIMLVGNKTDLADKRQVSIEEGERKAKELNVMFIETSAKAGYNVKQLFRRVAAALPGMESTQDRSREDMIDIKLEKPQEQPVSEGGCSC

B1: KIF1C-355-His (domain or fragment)
chain: MAGASVKVAVRVRPFNARETSQDAKCVVSMQGNTTSIINPKQSKDAPKSFTFDYSYWSHTSTEDPQFASQQQVYRDIGEEMLLHAFEGYNVCIFAYGQTGAGKSYTMMGRQEPGQQGIVPQLCEDLFSRVSENQSAQLSYSVEVSYMEIYCERVRDLLNPKSRGSLRVREHPILGPYVQDLSKLAVTSYADIADLMDCGNKARTVAATNMNETSSRSHAVFTIVFTQRCHDQLTGLDSEKVSKISLVDLAGSERADSSGARGMRLKEGANINKSLTTLGKVISALADMQSKKRKSDFIPYRDSVLTWLLKENLGGNSRTAMIAALSPADINYEETLSTLRYADRTKQIRNTVSVN
On to B1, for which binding was characterised by a dissociation constant (Kd) of 170 nM.

Source of the values: PMC4405695 (2015).
